Source: the supplement of paper PMC10724198
± gives the standard deviation of the averaged measurements.

System: Saccharomyces cerevisiae
Assay: protein stability index of tFT-peptide fusion (C-terminal peptide) (PSI (0-1 scale)); higher = more stable (slower turnover)
Conditions: genetic background: wild type; temperature: 30 C
Description: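 Multiplexed protein stability (MPS) profiling in S. cerevisiae. Random 12-aa peptides (tFT-X12 library) are fused to the C-terminus of a sfGFP-mCherry tandem fluorescent timer, after mCherry and a GGGS linker. Cells are FACS-sorted into 8 mCherry/sfGFP bins and deep-sequenced. The protein stability index (PSI) is the read-weighted bin average, scaled from 0 (unstable) to 1 (stable). Only peptides with >10 reads are reported; cells were grown at 30 °C in SC-His with glucose.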
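Further: PSI is a weighted mean of sequencing reads over stability bins, variants kept only with over 10 reads, mCherry proximal and sfGFP distal, peptide attached via GGGS linker.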

| Sequence | protein stability index |
| --- | --- |
| LSQPRDGMRWCA | 0.6191 ± 0.0035 |
| LVGLCSVFPSLV | 0.716 ± 0.008 |
| RTTAPPIPLPSP | 0.729 ± 0.042 |
| PSRPTLLTPLSP | 0.695 ± 0.045 |
| PHPPPSPGPSPP | 0.707 ± 0.11 |
| RGLDNSGVVAGG | 0.715 ± 0.025 |
| PCPHPLRPALIL | 0.704 ± 0.014 |
| KTDNTRTQKMVR | 0.808 ± 0.011 |
| LSSPTHTPHPPS | 0.701 ± 0.0097 |
| PGLPLPPFPFFS | 0.762 ± 0.047 |
| FDFISHLYWSIV | 0.582 ± 0.011 |
| MNVHGHERLRPS | 0.678 ± 0.066 |
| NVLIISEQNHEP | 0.748 ± 0.047 |
| PAHSLPPPPPPP | 0.702 ± 0.041 |
| LLRPPSAPSTLL | 0.706 ± 0.084 |
| KKRKNNKIRKKK | 0.723 ± 0.0053 |
| KTGEKIKKNNIK | 0.692 ± 0.059 |
| QRKNQKKKHNRR | 0.7159 ± 0.0027 |
| VSVSDSKMARLG | 0.676 ± 0.055 |
| SRRETKTRLAPN | 0.656 ± 0.14 |
| AETESASRCLHW | 0.776 ± 0.026 |
| PLPSSSTRSTSP | 0.714 ± 0.013 |
| RWPSVGFTAHNV | 0.571 |
| KKKKEKKYKERY | 0.721 ± 0.13 |
| RRTRRATKAKKR | 0.682 ± 0.058 |

| Sequence | protein stability index |
| --- | --- |
| HLPPFLRPPFPL | 0.686 ± 0.017 |
| VITCGLVLRSVR | 0.652 ± 0.031 |
| SRVVCVGGRLFG | 0.702 ± 0.045 |
| VLSLPLPSLSLN | 0.725 ± 0.18 |
| SRFFFSPRLCVP | 0.604 ± 0.033 |
| DSVFTKALEPAW | 0.722 ± 0.04 |
| CGAGGARGSVAR | 0.693 ± 0.026 |
| KSKKRERDETKK | 0.645 ± 0.033 |
| LMYGCAQHRNRS | 0.61 ± 0.033 |
| PLPPILPAPPPT | 0.704 ± 0.028 |
| TTPHTSFTILHP | 0.696 ± 0.087 |
| TNKRKNIRTKQR | 0.638 ± 0.037 |
| LWGSGVYGKNEC | 0.703 ± 0.052 |
| SFIFTLRRSRPR | 0.667 ± 0.012 |
| EVYAGGESDVMS | 0.637 ± 0.029 |
| PPPTVRLSCVPP | 0.794 ± 0.031 |
| KKKKKKGKGAKT | 0.617 ± 0.011 |
| FGFRLFLPSFSA | 0.6433 ± 0.0029 |
| RGARRHSPTARW | 0.717 ± 0.037 |
| VASPAPALRPPL | 0.746 ± 0.093 |
| HSGLTGLRRLVA | 0.594 ± 0.012 |
| ASLFFSLCSLSE | 0.694 ± 0.011 |
| GGGGGNAGSHLG | 0.673 ± 0.018 |
| VILCPVCFPEEK | 0.66459 ± 0.00057 |
| PSPLPMYPPPTF | 0.693 ± 0.0083 |

| Sequence | protein stability index |
| --- | --- |
| PASSAPDSSTAH | 0.7406 ± 0.0052 |
| PPPSSILSPSTS | 0.659 ± 0.046 |
| GGFTAPLVLSPR | 0.686 ± 0.071 |
| LPSPPPLISLIP | 0.644 ± 0.12 |
| LPSPSSSPPPFP | 0.7274 ± 0.0013 |
| FFVGFASLRLVL | 0.5517 ± 0.0046 |
| GDWQGRADGAVI | 0.671 ± 0.071 |
| RGGGAGAVQYRS | 0.642 ± 0.014 |
| GATLWGMAWGAR | 0.682 ± 0.012 |
| GKEQIEKKIEGI | 0.589 ± 0.009 |
| GGEWGDRRKSGV | 0.647 ± 0.059 |
| SPSFSLLFPFLL | 0.657 ± 0.037 |
| PDRPVISLLLPS | 0.646 ± 0.079 |
| LGVGGRWGVPGA | 0.715 ± 0.04 |
| RRTTTDSPRADR | 0.708 ± 0.047 |
| PPPPRPAPSAPY | 0.676 ± 0.045 |
| TAYNVTLVIARG | 0.468 ± 0.094 |
| AGGGPGLEARSL | 0.612 ± 0.017 |
| GIGSHSSSNVNP | 0.791 ± 0.094 |
| SPPPALPPSSPS | 0.657 ± 0.025 |
| LISRLVSSLIHT | 0.621 ± 0.015 |
| EYQGARAAGQSL | 0.678 ± 0.02 |
| NKHVMELPGEPG | 0.647 ± 0.0079 |
| PFLRPPSPPSSP | 0.66 ± 0.013 |
| PQSVMFFGAPVW | 0.687 ± 0.034 |

| Sequence | protein stability index |
| --- | --- |
| ALVRGGYLFFPP | 0.663 ± 0.026 |
| PPPAPPPPPSSR | 0.667 ± 0.007 |
| PLSPPPYPPRPL | 0.721 ± 0.024 |
| IITAARGDTLSR | 0.706 ± 0.018 |
| PRVRSPLLSPPQ | 0.606 ± 0.017 |
| VWRSERCRRGGV | 0.699 ± 0.15 |
| PCHPGASLRRRL | 0.861 ± 0.067 |
| PRSPPCPLPPPL | 0.65 ± 0.11 |
| LLPAPPRLLPSS | 0.68 ± 0.024 |
| PTKLFDTRPRGA | 0.679 ± 0.05 |
| PTLPTPAARPGR | 0.696 ± 0.016 |
| FSTTSFPPSFFP | 0.711 ± 0.042 |
| SYPPLLPQLPPP | 0.678 ± 0.062 |
| SGAGVGGQVAVG | 0.717 ± 0.061 |
| KKEEEGRTKECR | 0.694 ± 0.093 |
| KKREEVKKNIKI | 0.681 ± 0.019 |
| AVISSSFFGSSY | 0.721 ± 0.076 |
| MVSMFRLFLGLV | 0.589 ± 0.016 |
| RIETHNQKSPGL | 0.737 ± 0.0023 |
| VLHLVGFDADVV | 0.725 ± 0.021 |
| YREPKISEMLQE | 0.621 ± 0.017 |
| PPPPTALPHPDL | 0.604 ± 0.012 |
| GLCRVANGGTER | 0.695 ± 0.018 |
